For one test, the target named is PSMA-expressing cells (Homo sapiens, UniProt Q04609). The conditions noted are these: cited from earlier work.
For test [1], the system named is PSMA positive C4-2 and LNCaP tumor cells. Briefly: Antigen-specific activation (CD69) of CAR expressing Jurkat cells by PSMA positive tumor cells. Type of test: cell-based. As to the method: Panel (C) presents the antigen-specific-activation profile, CAR expressing Jurkat cells were stimulated for 24 h at an 1:1 effector-to-target ratio with either PSMA positive, PD-L1 negative C4-2 tumor cells (PSMA+/PDL1−), or PSMA positive, PD-L1 positive LNCaP tumor cells (PSMA+/PDL1+). As a negative control, CAR cells were co-cultured with PSMA negative DU145 tumor cells (PSMA−). Following 24 h stimulation, cells were harvested and activation profile was assessed by evaluating the percentage of cells that are positive for the activation marker CD69. Statistically significant differences are indicated by ****(P<0.001).
Panel (D) depicts the characterization of employed prostate cancer cell lines. The extent of PSMA target antigen expression (left) and PD-L1 (CD274) expression (right) was assessed on C4-2, LNCaP and DU145 prostate cell lines. For flow cytometric analysis, cells were either stained with 3/F11 1 antibody (anti-PSMA) or an anti-CD274 antibody. UT, untransduced T cells; PD-L1, Programmed cell death ligand 1; PSMA; prostate specific membrane antigen. As shown in panel D (left), both C4-2 and LNCaP tumor cells express the PSMA antigen while the DU145 is negative for the PSMA antigen. […]
The antigen-specific activation of transduced Jurkat T cells was measured by monitoring the expression of the activation marker CD69 upon antigen stimulation FIG. 9C. […]

We go through two molecules from patent US12428492B2, “Chimeric antigen receptors that bind to prostate specific membrane antigen” (Albert-Ludwigs-Universitaet Freiburg, priority 2019, dated 2025).

Chain of PSMA-expressing cells (Q04609 whole entry): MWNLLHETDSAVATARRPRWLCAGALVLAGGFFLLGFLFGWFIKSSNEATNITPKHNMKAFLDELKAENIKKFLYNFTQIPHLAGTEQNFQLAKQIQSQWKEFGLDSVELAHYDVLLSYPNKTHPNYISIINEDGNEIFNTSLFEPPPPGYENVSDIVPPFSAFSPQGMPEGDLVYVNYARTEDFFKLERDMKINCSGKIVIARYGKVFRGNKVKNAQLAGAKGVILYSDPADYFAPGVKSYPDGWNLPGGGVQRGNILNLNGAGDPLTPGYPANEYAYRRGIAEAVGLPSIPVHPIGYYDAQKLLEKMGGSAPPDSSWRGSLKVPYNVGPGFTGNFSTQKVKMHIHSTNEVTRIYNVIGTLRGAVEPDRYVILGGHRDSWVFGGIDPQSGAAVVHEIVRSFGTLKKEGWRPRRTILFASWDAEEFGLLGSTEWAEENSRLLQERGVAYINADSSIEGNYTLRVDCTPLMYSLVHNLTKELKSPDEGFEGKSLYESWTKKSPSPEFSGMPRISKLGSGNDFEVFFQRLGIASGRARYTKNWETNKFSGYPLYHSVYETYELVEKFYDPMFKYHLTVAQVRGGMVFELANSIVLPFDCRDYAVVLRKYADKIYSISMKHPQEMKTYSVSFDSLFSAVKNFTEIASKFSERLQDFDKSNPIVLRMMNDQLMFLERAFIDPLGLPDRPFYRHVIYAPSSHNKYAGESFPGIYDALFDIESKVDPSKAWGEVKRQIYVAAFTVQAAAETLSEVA

B1: A5: single-chain variable fragment generated by phage display from mAb 3/A12; SEQ ID NO:42 (protein, listed as Mus musculus)
scFv: DVKLVESGGGLVKPGESLKLSCIASGFTFSDYYMYWVRQTPEKRLEWVAIISDGGYYTYYSDIIKGRFTISRDNAKNNLYLQMSSLKSEDTAMYYCTRGFPLLRHGAMDYWGLGTSVTVSSGGGGSGGGGSGGGGSDIQMTQSPKFMSTSVGDRVSVTCKASQNVDTNVAWYQQKPGQSPKALIYSASYRYSDVPDRFTGSESGTDFTLTISNVQSEDLAEYFCQQYDSYPYTFGGGTKLEIK
modifications: murine scFv A5
B1: the Kd in the test with PSMA-expressing cells is about 33 nM.

B2: A5-based CAR: 2nd generation anti-PSMA CAR: scFv A5, Fc IgG1 hinge, transmembrane domain, CD28 costimulatory domain, CD3ζ; SEQ ID NO:39 (protein)
chain: MDFQVQIFSFLLISASVIMSRDVKLVESGGGLVKPGESLKLSCIASGFTFSDYYMYWVRQTPEKRLEWVAIISDGGYYTYYSDIIKGRFTISRDNAKNNLYLQMSSLKSEDTAMYYCTRGFPLLRHGAMDYWGLGTSVTVSSGGGGSGGGGSGGGGSDIQMTQSPKFMSTSVGDRVSVTCKASQNVDTNVAWYQQKPGQSPKALIYSASYRYSDVPDRFTGSESGTDFTLTISNVQSEDLAEYFCQQYDSYPYTFGGGTKLEIKSDPAEPKSPDKTHTCPPCPAPPVAGPSVFLFPPKPKDTLMIARTPEVTCVVVDVSHEDPEVKFNWYVDGVEVHNAKTKPREEQYNSTYRVVSVLTVLHQDWLNGKEYKCKVSNKALPAPIEKTISKAKGQPREPQVYTLPPSRDELTKNQVSLTCLVKGFYPSDIAVEWESNGQPENNYKTTPPVLDSDGSFFLYSKLTVDKSRWQQGNVFSCSVMHEALHNHYTQKSLSLSPGKKDPKFWVLVVVGGVLACYSLLVTVAFIIFWVRSKRSRLLHSDYMNMTPRRPGPTRKHYQAYAAARDFAAYRSLRVKFSRSADAPAYQQGQNQLYNELNLGRREEYDVLDKRRGRDPEMGGKPRRKNPQEGLYNELQKDKMAEAYSEIGMKGERRRGKGHDGLYQGLSTATKDTYDALHMQALPPR
modifications: A5CAR28
Take B2: the CD69-positive cells result in test [1] (24 h, 1:1 effector-to-target ratio, C4-2 or LNCaP) was “about 70%”. The “activation of Jurkat cells upon antigen-specific sensitization” value in test [1] (CD69) was “massive activation”.

Broadly, the Kd is a measure of binding affinity in units of concentration.
